Reference: US20180280496A1
Read-outs that look alike come from different tables or passages of the source.

Columns and labels:
A*03:01 (human), P04439 [1] = settings: modification not given
A*11:01 (human), P04439 [2] = settings: modification not given
A*03:01 (human), P04439 [3] = test: ProImmune REVEAL MHC class I-peptide binding assay
A*11:01 (human), P04439 [4] = test: ProImmune REVEAL MHC class I-peptide binding assay
A*03:01 (human), P04439 [5] = target: T1, A*03:01 (human), P04439; settings: modification not given
T1 chain: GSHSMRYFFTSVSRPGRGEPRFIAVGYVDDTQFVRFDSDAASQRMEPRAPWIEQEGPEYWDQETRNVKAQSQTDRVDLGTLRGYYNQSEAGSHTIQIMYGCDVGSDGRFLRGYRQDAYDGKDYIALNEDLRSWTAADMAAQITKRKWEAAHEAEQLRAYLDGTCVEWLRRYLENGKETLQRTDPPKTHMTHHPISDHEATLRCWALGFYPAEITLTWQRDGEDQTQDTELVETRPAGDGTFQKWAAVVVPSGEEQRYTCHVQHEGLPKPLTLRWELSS

A*11:01 (human), P04439 [6] = settings: modification not given; remark: listed apart in the source
A*11:01 (human), P04439 [7] = settings: modification not given; remark: listed apart in the source
A*03:01 (human), P04439 [8] = target: T1, A*03:01 (human), P04439; settings: modification not given
HLA-A*32:01 [9] = settings: chains peptide; modification not given
HLA-B*40:01 [10] = settings: chains peptide; modification not given
HLA-A*32:01 [11] = settings: chains peptide; modification not given; remark: listed apart in the source
HLA-B*40:01 [12] = settings: chains peptide; modification not given; remark: listed apart in the source

B1: SEQ ID NO: 311 serotype 1 (peptide)
chain: ALKLSWFKK
IC50 (A*03:01 (human), P04439 [1]): 42 nM
IC50 (A*11:01 (human), P04439 [2]): 59 nM

B2: … (peptide)
peptide: MCHATFTMR
modifications: not checked
REVEAL score at 0 h (A*03:01 (human), P04439 [3]): 86.8
REVEAL score at 0 h (A*11:01 (human), P04439 [4]): 91

B3: SEQ ID NO: 311 serotype 3 (peptide)
chain: ALKINWYRK
IC50 (A*03:01 (human), P04439 [5]): 193 nM
IC50 (A*11:01 (human), P04439 [6]): 376 nM

B4: SEQ ID NO: 311 serotype 2 (peptide)
chain: QLKLNWFKK
IC50 (A*11:01 (human), P04439 [7]): 778 nM
IC50 (A*03:01 (human), P04439 [8]): 151 nM

B5: SEQ ID NO: 310 serotype 1 (peptide)
chain: KQWFLDLPL
IC50 (HLA-A*32:01 [9]): 8 nM
IC50 (HLA-B*40:01 [10]): 398 nM

B6: SEQ ID NO: 310 serotype 4 (peptide)
chain: KQWFLDLPL
IC50 (HLA-A*32:01 [11]): 8 nM
IC50 (HLA-B*40:01 [12]): 398 nM
